Data on two molecules can be found in article PMC9638944, “ATM-mediated ELL phosphorylation enhances its self-association through increased EAF1 interaction and inhibits global transcription during genotoxic stress” (Nucleic Acids Research, 2022).

One data set has as its target EAF1 (UniProt Q96JC9). In words: IP of tagged ELL, EAF1 blot. As to conditions: reference: wild type ELL; sites T551,S561,S589.
A further data set has as its target T1, GST-ELL (human, UniProt P55199 1-621).
T1 construct: ELL (aka ELL1), human; Cloned in pET-GST
T1 sequence (looked up): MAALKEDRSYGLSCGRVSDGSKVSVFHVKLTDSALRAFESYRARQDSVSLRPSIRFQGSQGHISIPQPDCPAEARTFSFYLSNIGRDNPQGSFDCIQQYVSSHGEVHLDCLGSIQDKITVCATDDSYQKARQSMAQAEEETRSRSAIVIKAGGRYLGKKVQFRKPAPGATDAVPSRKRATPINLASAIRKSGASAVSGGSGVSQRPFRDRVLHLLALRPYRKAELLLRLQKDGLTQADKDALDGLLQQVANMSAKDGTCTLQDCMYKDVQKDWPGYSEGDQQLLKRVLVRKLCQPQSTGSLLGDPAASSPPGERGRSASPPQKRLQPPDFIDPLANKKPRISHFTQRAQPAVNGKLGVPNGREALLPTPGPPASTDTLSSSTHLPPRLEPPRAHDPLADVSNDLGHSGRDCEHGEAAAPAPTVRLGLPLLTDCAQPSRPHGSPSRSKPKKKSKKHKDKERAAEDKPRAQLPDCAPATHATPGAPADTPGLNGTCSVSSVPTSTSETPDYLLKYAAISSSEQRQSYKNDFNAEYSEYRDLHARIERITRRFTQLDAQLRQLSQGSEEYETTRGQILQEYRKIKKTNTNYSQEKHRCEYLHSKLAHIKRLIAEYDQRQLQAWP
In words: pull-down; GST or GST-ELL bound to glutathione beads incubated with purified prey in 20 mM Tris-Cl pH 8, 20% glycerol, 2 mM EDTA, 150 mM KCl, BSA 20 ng/μl, 0.1% NP-40, 10–12 h, 4°C; immunoblot; some panels with purified EAF1 added. The conditions noted are these: both partners purified. (In western blotting, separated proteins are transferred to a membrane and probed.)

Data set [1] deals with the molecule itself. As to the kind of experiment: co-sedimentation; glycerol gradient of purified recombinant His-GFP-ELL.

Turning to “ELL (aka ELL1) (from UniProt P55199) ELL TM (T551A, S561A, S589A)”, in the data set with EAF1, the “binding against the reference” value is “weaker”.

B1: His-GFP-ELL (natural protein, human, UniProt P55199 1-621, looked up)
chain: MAALKEDRSYGLSCGRVSDGSKVSVFHVKLTDSALRAFESYRARQDSVSLRPSIRFQGSQGHISIPQPDCPAEARTFSFYLSNIGRDNPQGSFDCIQQYVSSHGEVHLDCLGSIQDKITVCATDDSYQKARQSMAQAEEETRSRSAIVIKAGGRYLGKKVQFRKPAPGATDAVPSRKRATPINLASAIRKSGASAVSGGSGVSQRPFRDRVLHLLALRPYRKAELLLRLQKDGLTQADKDALDGLLQQVANMSAKDGTCTLQDCMYKDVQKDWPGYSEGDQQLLKRVLVRKLCQPQSTGSLLGDPAASSPPGERGRSASPPQKRLQPPDFIDPLANKKPRISHFTQRAQPAVNGKLGVPNGREALLPTPGPPASTDTLSSSTHLPPRLEPPRAHDPLADVSNDLGHSGRDCEHGEAAAPAPTVRLGLPLLTDCAQPSRPHGSPSRSKPKKKSKKHKDKERAAEDKPRAQLPDCAPATHATPGAPADTPGLNGTCSVSSVPTSTSETPDYLLKYAAISSSEQRQSYKNDFNAEYSEYRDLHARIERITRRFTQLDAQLRQLSQGSEEYETTRGQILQEYRKIKKTNTNYSQEKHRCEYLHSKLAHIKRLIAEYDQRQLQAWP
notes: ELL (aka ELL1), human; Cloned in pET-11d; also called GFP-ELL (in vitro); purified recombinant ELL protein; source: E. coli BL21(DE3), purified (Ni-NTA)
Take B1: the binding result (with GST-ELL; in data set [1]) was “binds” throughout.
